Laboratory results as given in US20230220021A1 (UNIVERSITY OF COPENHAGEN, published 2023).
[ ]: non-standard residue; d: D form.

Biological target: T1, (7× His)-PSD-95-PDZ2 wild type (UniProt P78352 160-246)
T1 construct: domain: PDZ2; recombinant from E. coli; also called PSD-95-PDZ2 WT; not shown: 7x His tag
Test: FP competition

T1 sequence (P78352 160-246): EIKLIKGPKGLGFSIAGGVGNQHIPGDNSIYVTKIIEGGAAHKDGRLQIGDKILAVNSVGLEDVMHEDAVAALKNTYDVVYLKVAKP

Ki [nM] | Relative Ki (Ki mut/Ki WT) | Binder
2590 | 1.73 | cyclo(THLETTFTGGGTPKTIRVTQ[dP]GQ) (SMILES CC[C@H](C)[C@@H]1NC(=O)[C@H]([C@@H](C)O)NC(=O)[C@H](CCCCN)NC(=O)[C@@H]2CCCN2C(=O)[C@H]([C@@H](C)O)NC(=O)CNC(=O)CNC(=O)CNC(=O)[C@H]([C@@H](C)O)NC(=O)[C@H](Cc2ccccc2)NC(=O)[C@H]([C@@H](C)O)NC(=O)[C@H]([C@@H](C)O)NC(=O)[C@H](CCC(=O)O)NC(=O)[C@H](CC(C)C)NC(=O)[C@H](Cc2c[nH]cn2)NC(=O)[C@H]([C@@H](C)O)NC(=O)[C@H](CCC(N)=O)NC(=O)CNC(=O)[C@H]2CCCN2C(=O)[C@H](CCC(N)=O)NC(=O)[C@H]([C@@H](C)O)NC(=O)[C@H](C(C)C)NC(=O)[C@H](CCCNC(=N)N)NC1=O) [cyclic nNOS β-hairpin peptide D114G]
990 | 0.66 | cyclo(THLETTFTGRGTPKTIRVTQ[dP]GQ) (SMILES CC[C@H](C)[C@@H]1NC(=O)[C@H]([C@@H](C)O)NC(=O)[C@H](CCCCN)NC(=O)[C@@H]2CCCN2C(=O)[C@H]([C@@H](C)O)NC(=O)CNC(=O)[C@H](CCCNC(=N)N)NC(=O)CNC(=O)[C@H]([C@@H](C)O)NC(=O)[C@H](Cc2ccccc2)NC(=O)[C@H]([C@@H](C)O)NC(=O)[C@H]([C@@H](C)O)NC(=O)[C@H](CCC(=O)O)NC(=O)[C@H](CC(C)C)NC(=O)[C@H](Cc2c[nH]cn2)NC(=O)[C@H]([C@@H](C)O)NC(=O)[C@H](CCC(N)=O)NC(=O)CNC(=O)[C@H]2CCCN2C(=O)[C@H](CCC(N)=O)NC(=O)[C@H]([C@@H](C)O)NC(=O)[C@H](C(C)C)NC(=O)[C@H](CCCNC(=N)N)NC1=O) [cyclic nNOS β-hairpin peptide D114R]
2400 | 1.6 | cyclo(THLETTFTGPGTPKTIRVTQ[dP]GQ) (SMILES CC[C@H](C)[C@@H]1NC(=O)[C@H]([C@@H](C)O)NC(=O)[C@H](CCCCN)NC(=O)[C@@H]2CCCN2C(=O)[C@H]([C@@H](C)O)NC(=O)CNC(=O)[C@@H]2CCCN2C(=O)CNC(=O)[C@H]([C@@H](C)O)NC(=O)[C@H](Cc2ccccc2)NC(=O)[C@H]([C@@H](C)O)NC(=O)[C@H]([C@@H](C)O)NC(=O)[C@H](CCC(=O)O)NC(=O)[C@H](CC(C)C)NC(=O)[C@H](Cc2c[nH]cn2)NC(=O)[C@H]([C@@H](C)O)NC(=O)[C@H](CCC(N)=O)NC(=O)CNC(=O)[C@H]2CCCN2C(=O)[C@H](CCC(N)=O)NC(=O)[C@H]([C@@H](C)O)NC(=O)[C@H](C(C)C)NC(=O)[C@H](CCCNC(=N)N)NC1=O) [cyclic nNOS β-hairpin peptide D114P]
2870 | 1.91 | cyclo(THLETTFTGKGTPKTIRVTQ[dP]GQ) (SMILES CC[C@H](C)[C@@H]1NC(=O)[C@H]([C@@H](C)O)NC(=O)[C@H](CCCCN)NC(=O)[C@@H]2CCCN2C(=O)[C@H]([C@@H](C)O)NC(=O)CNC(=O)[C@H](CCCCN)NC(=O)CNC(=O)[C@H]([C@@H](C)O)NC(=O)[C@H](Cc2ccccc2)NC(=O)[C@H]([C@@H](C)O)NC(=O)[C@H]([C@@H](C)O)NC(=O)[C@H](CCC(=O)O)NC(=O)[C@H](CC(C)C)NC(=O)[C@H](Cc2c[nH]cn2)NC(=O)[C@H]([C@@H](C)O)NC(=O)[C@H](CCC(N)=O)NC(=O)CNC(=O)[C@H]2CCCN2C(=O)[C@H](CCC(N)=O)NC(=O)[C@H]([C@@H](C)O)NC(=O)[C@H](C(C)C)NC(=O)[C@H](CCCNC(=N)N)NC1=O) [cyclic nNOS β-hairpin peptide D114K]
